{"source": "patent US20240425603A1", "about": "(Janssen / Centocor, published 2024)", "binders": {"B1": {"name": "mouse VEGFA164 (ligand, UniProt Q00731-2 27-190, looked up)", "chain": "APTTEGEQKSHEVIKFMDVYQRSYCRPIETLVDIFQEYPDEIEYIFKPSCVPLMRCAGCCNDEALECVPTSESNITMQIMRIKPHQSQHIGEMSFLQHSRCECRPKKDRTKPENHCEPCSERRKHLFVQDPQTCKCSCKNTDSRCKARQLELNERTCRCDKPRR", "notes": "also called VEGFA (mouse VEGFR1 columns)"}, "B2": {"name": "human VEGFA165 (ligand, UniProt P15692-4 27-191, looked up)", "chain": "APMAEGGGQNHHEVVKFMDVYQRSYCHPIETLVDIFQEYPDEIEYIFKPSCVPLMRCGGCCNDEGLECVPTEESNITMQIMRIKPHQGQHIGEMSFLQHNKCECRPKKDRARQENPCGPCSERRKHLFVQDPQTCKCSCKNTDSRCKARQLELNERTCRCDKPRR", "notes": "used unlabeled and biotin labeled; also called human VEGF165 (R&D Systems); hVEGFA165"}, "B3": {"name": "human PlGF (ligand, UniProt P49763-2 19-149, looked up)", "chain": "LPAVPPQQWALSAGNGSSEVEVVPFQEVWGRSYCRALERLVDVVSEYPSEVEHMFSPSCVSLLRCTGCCGDENLHCVPVETANVTMQLLKIRSGDRPSYVELTFSQHVRCECRPLREKMKPERCGDAVPRR", "notes": "ligand on human and cyno VEGFR1; also called placental growth factor"}, "B4": {"name": "Domain 2 of hVEGFR1 alone (receptor)", "chain": "DTGRPFVEMYSEIPEIIHMTEGRELVIPCRVTSPNITVTLKKFPLDTLIPDGKRIIWDSRKGFIISNATYKEIGLLTCEATVNGHLYKTNYLTHRQ", "notes": "also called human VEGFR1 D2"}, "B5": {"name": "VGFB883 (antibody, human IgG1, lambda, L234A L235A, V domains shown)", "VH": "EVQLLESGGGSVQPGGSLRLSCTASGFNFEDYGMNWVRQAPGKGLDWVSSINRQGDISTYHVDSVKGRFTISRDNSKNTLYLQMNSLRAEDTAIYYCTKNHDYHGMDVWGQGTTVTVSS", "VL": "not shown", "notes": "human IgG1 (L234A/L235A/D265S); also called N54Q variant of VGFB54"}}, "key": {"[1]": {"target": "T1, Recombinant mouse VEGFR1-Fc (R&D Systems) (mouse, UniProt P35969 27-759, limits assumed)", "T1 construct": "bought; not shown: Fc part of the bought fusion, not described", "T1 sequence (looked up)": "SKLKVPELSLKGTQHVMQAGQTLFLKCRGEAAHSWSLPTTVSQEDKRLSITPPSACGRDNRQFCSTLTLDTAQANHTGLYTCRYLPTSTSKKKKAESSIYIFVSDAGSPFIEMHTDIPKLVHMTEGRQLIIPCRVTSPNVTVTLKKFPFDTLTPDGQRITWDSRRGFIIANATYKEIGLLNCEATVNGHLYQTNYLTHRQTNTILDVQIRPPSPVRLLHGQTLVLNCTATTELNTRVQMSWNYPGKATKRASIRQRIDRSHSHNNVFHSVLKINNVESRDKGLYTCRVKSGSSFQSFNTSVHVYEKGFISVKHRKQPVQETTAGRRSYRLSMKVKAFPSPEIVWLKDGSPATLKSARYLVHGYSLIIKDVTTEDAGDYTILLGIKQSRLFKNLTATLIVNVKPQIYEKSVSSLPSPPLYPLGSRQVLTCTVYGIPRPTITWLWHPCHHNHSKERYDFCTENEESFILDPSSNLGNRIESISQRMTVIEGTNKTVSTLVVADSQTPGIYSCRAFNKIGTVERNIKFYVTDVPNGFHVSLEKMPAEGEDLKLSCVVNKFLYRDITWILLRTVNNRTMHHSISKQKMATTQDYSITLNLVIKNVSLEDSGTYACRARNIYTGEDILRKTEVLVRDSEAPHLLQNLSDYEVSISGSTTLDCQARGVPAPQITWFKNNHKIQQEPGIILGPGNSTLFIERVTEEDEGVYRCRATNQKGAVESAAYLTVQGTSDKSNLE", "experiment": "MSD ECL competition on plate-bound mouse VEGFR1-Fc; competitor biotin mouse VEGFA164 (0.2 nM)", "how_it_was_run": "(§1)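 IC50 and maximal percent inhibition come from electro-chemiluminescence readings of bound ligand, detected with Sulfo-tagged streptavidin on an MSD SECTOR S 600 imager. Receptor (human or mouse VEGFR1-Fc, or His-tagged cyno VEGFR1, 0.5 ug/ml) was captured for 1 hour at room temperature on Protein A/G- or anti-His mAb-coated MSD 384 plates blocked with Blocker A. Half-log antibody dilutions were pre-incubated for 30 minutes before biotinylated VEGFA (0.2 nM) or PlGF (2 nM) was added.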"}, "[2]": {"target": "recombinant human VEGFR1 (D1-D3) (human, UniProt P17948 27-328, limits assumed)", "sequence (P17948 27-328 limits assumed)": "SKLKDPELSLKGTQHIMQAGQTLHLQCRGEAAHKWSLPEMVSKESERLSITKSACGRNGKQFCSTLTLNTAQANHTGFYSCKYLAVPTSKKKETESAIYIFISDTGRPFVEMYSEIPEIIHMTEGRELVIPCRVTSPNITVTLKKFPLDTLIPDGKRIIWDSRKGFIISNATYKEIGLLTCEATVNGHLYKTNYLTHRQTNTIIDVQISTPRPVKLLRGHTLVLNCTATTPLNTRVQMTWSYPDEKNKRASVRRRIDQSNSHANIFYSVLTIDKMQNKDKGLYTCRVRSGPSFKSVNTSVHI", "experiment": "SPR; VEGFR1 D1-D3"}, "human VEGFR1 (D2-D3)": {"target": "human VEGFR1 (D2-D3) (human, UniProt P17948 130-331)", "experiment": "SPR; VEGFR1 D2-D3"}, "[3]": {"target": "T2, Recombinant human VEGFR1-Fc (R&D Systems) (human, UniProt P17948 27-687, limits assumed)", "T2 construct": "bought; not shown: Fc part of the bought fusion, not described", "T2 sequence (P17948 27-687 limits assumed)": "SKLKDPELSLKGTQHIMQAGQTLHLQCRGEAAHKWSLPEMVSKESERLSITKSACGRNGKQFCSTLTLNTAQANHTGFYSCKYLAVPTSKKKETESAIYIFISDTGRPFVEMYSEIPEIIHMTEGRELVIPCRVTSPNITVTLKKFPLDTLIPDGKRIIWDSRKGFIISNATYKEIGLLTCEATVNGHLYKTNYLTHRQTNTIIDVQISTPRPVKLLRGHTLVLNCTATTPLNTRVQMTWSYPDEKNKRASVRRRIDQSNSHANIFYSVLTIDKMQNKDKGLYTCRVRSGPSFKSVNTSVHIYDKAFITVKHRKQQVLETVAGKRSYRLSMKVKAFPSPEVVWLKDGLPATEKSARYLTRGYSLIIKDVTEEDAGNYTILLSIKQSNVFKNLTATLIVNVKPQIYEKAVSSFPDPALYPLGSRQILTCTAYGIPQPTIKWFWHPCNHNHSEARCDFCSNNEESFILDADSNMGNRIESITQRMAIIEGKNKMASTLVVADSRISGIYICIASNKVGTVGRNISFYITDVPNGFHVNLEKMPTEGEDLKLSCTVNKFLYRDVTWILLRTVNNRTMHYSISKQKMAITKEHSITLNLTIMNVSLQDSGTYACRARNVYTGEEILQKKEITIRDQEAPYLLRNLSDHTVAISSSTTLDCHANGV", "experiment": "MSD ECL competition on plate-bound human VEGFR1-Fc; competitor biotin human VEGFA165 (0.2 nM)", "how_it_was_run": "as §1"}, "His tagged cyno VEGFR1 [4]": {"target": "T3, His tagged cyno VEGFR1 (cynomolgus monkey, UniProt A0A2K5VAF2 27-758)", "experiment": "MSD ECL competition on plate-bound His-tagged cyno VEGFR1; competitor biotin human VEGFA165 (0.2 nM)", "how_it_was_run": "as §1"}, "[5]": {"target": "T2, Recombinant human VEGFR1-Fc (R&D …)", "experiment": "MSD ECL competition on plate-bound human VEGFR1-Fc; competitor biotin PlGF (2 nM)", "how_it_was_run": "as §1"}, "His tagged cyno VEGFR1 [6]": {"target": "T3, His tagged cyno VEGFR1", "experiment": "MSD ECL competition on plate-bound His-tagged cyno VEGFR1; competitor biotin human PlGF (2 nM)", "how_it_was_run": "as §1"}, "human VEGFA165 [7]": {"target": "B2", "experiment": "SPR; VEGFR1 D2 alone"}, "human VEGFA165 [8]": {"target": "B2", "experiment": "SPR; against the D1-D3 and D2-D3 constructs"}, "[9]": {"target": "human VEGFR1 (soluble antigen of the KinExA and SPR affinity assays) (human, UniProt P17948 27-758, limits assumed)", "sequence (P17948 27-758 limits assumed)": "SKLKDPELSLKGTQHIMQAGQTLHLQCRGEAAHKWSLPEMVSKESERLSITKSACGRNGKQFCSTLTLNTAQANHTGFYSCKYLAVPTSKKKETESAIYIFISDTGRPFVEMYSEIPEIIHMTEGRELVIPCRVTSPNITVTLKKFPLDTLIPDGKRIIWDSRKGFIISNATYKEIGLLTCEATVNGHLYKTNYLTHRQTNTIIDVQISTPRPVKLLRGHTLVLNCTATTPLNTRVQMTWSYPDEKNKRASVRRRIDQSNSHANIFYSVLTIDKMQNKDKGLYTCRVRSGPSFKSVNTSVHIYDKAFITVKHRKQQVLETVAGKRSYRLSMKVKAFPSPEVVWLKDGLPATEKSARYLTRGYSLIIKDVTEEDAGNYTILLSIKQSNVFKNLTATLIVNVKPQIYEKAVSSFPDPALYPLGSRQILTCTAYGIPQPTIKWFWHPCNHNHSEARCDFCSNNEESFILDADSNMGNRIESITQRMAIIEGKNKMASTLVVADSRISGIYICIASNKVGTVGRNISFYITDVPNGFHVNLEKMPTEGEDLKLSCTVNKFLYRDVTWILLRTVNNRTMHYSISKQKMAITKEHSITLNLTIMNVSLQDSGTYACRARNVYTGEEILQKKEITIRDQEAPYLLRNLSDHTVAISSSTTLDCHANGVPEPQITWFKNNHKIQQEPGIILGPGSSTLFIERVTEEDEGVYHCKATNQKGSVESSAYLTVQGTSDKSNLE", "experiment": "KinExA, solution", "protocol": "(§2) Kinetic exclusion assay (KEA; KinExA) was used to analyze the binding of anti-VEGFR1 antibodies to human, mouse and cynomolgus monkeys VEGFR1. KEA is a fluorescence-based solution method, and it is described in detail in the literature (Darling and Brault, 2004). To measure the affinity of an interaction, a series of solutions with a fixed concentration of one interactant (A) and varying concentrations of another interactant (B) are prepared and allowed to reach equilibrium. After equilibration, the concentration of free A is determined by flowing the equilibrated mixture through a column packed with beads modified with reactant B. Free A binds to the beads and is then detected using a fluorescently labeled polyclonal antibody.\n(§3) Briefly, fixed concentrations (300 pM, 60 pM, 12 pM, 2.4 or 0.5 pM) of Ab were used to prepare a serial dilution of the antigen (2 nM to 0.52 pM, or 800 pM to 5.37 fM). The complex titrations were incubated at RT to reach binding equilibrium for at least 2 days. After incubation, the samples were run on the KinExA3200 or KinExA4000 instrument to assess free antibody in the reaction. During these studies some of the data were rejected because the experiments failed or failed the acceptance criteria. For mouse VEGFR1 the 60 and 300 pM concentrations were rejected due to high titrant related NSB. The dissociation equilibrium constant, (KD), was determined using the n-curve analysis feature of the KinExA Pro software. This program uses nonlinear least-square regression analysis of the globally fitted data to a 1:1 binding model. (CI=confidence interval)."}, "[10]": {"target": "cynomolgus monkey VEGFR1 (soluble antigen of the KinExA and SPR affinity assays) (cynomolgus monkey)", "experiment": "KinExA, solution", "protocol": "as §2, §3"}, "[11]": {"target": "T4, mouse VEGFR1 (soluble antigen of the KinExA and SPR affinity assays) (mouse, UniProt P35969 23-759, limits assumed)", "T4 sequence (looked up)": "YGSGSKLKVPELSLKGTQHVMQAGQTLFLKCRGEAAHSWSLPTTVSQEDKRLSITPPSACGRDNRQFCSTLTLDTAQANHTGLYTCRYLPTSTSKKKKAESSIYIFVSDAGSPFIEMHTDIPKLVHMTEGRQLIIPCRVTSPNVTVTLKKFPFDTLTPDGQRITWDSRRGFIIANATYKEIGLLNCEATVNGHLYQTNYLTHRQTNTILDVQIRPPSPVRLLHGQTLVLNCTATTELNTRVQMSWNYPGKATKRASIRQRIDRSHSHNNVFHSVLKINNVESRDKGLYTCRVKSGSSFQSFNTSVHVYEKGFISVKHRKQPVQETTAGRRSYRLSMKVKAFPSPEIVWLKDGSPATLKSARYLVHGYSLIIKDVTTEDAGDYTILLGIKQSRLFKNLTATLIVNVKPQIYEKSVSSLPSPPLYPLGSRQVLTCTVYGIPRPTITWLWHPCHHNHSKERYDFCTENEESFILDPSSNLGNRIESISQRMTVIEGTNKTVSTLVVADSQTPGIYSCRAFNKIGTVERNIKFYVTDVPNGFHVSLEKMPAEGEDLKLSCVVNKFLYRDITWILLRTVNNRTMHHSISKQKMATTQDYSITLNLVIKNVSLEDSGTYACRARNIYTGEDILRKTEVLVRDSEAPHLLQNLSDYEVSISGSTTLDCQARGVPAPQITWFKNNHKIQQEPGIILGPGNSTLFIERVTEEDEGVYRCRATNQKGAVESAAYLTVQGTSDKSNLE", "experiment": "KinExA, solution", "protocol": "as §2, §3"}, "[12]": {"target": "T5, human VEGFR1, full length, over-expressed on cells (human, UniProt P17948 27-1338)", "T5 construct": "on CHO-K1 or HEK cells; also called hVEGFR1; CHOK1/ human VEGFR1", "T5 sequence (P17948 27-1338 limits assumed)": "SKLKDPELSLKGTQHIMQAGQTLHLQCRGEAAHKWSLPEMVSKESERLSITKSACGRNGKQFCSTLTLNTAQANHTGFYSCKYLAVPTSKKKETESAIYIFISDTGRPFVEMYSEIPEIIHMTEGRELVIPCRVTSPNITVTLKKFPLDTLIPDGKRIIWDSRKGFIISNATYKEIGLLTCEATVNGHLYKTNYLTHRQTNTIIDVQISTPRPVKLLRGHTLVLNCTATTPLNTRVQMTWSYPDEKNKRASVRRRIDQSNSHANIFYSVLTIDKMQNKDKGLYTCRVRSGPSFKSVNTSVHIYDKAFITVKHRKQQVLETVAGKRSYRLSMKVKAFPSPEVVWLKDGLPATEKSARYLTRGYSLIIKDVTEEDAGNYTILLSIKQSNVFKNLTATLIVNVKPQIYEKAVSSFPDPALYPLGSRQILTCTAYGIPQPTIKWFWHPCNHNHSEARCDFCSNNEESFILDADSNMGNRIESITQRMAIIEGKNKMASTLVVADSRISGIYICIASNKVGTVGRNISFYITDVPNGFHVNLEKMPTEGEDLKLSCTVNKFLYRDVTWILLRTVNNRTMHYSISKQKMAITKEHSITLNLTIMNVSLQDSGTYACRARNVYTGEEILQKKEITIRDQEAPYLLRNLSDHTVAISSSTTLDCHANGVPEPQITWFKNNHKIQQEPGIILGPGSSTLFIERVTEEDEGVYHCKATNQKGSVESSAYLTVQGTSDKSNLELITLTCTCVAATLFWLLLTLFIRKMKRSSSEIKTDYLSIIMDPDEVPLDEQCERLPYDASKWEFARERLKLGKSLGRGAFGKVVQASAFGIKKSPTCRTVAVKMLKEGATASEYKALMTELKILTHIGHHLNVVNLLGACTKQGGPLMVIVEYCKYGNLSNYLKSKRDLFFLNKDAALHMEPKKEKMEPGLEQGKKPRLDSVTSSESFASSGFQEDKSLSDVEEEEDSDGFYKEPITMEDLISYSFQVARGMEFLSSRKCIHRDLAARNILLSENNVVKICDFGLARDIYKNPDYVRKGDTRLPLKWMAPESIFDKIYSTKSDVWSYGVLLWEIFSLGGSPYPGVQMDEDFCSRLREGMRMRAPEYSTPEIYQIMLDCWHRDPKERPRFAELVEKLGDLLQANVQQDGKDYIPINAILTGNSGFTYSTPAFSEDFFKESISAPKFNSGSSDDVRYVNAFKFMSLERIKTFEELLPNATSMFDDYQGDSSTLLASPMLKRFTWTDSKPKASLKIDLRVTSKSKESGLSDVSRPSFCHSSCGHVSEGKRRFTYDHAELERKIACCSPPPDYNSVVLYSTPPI", "experiment": "cell binding assay (column head prints IC50)"}, "[13]": {"target": "T2, Recombinant human VEGFR1-Fc (R&D …)", "experiment": "biochemical ligand blocking assay; ligand and receptor form not given", "how_it_was_run": "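IC50 values come from a biochemical electro-chemiluminescence ligand blocking assay. Recombinant VEGFR1-Fc, captured on Protein A/G-coated MSD plates, was pre-incubated for 30 minutes with half-log antibody dilutions before biotinylated ligand was added and then detected on an MSD imager using Sulfo-tagged streptavidin.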"}}, "data": [{"binder": "B1", "values": [{"measurement": "IC50", "setting": "[1]", "result": 0.15, "unit": "nM"}, {"measurement": "Max % Inh.", "setting": "[1]", "result": 99.9, "unit": "%"}]}, {"binder": "B2", "values": [{"measurement": "Kd", "setting": "[2]", "result": "< 0.045", "unit": "nM"}, {"measurement": "Kd", "setting": "human VEGFR1 (D2-D3)", "result": "< 0.03", "unit": "nM"}, {"measurement": "IC50", "setting": "[3]", "result": 0.156, "unit": "nM"}, {"measurement": "Max % Inh.", "setting": "[3]", "result": 100, "unit": "%"}, {"measurement": "IC50", "setting": "His tagged cyno VEGFR1 [4]", "result": 0.261, "unit": "nM"}, {"measurement": "Max % Inh.", "setting": "His tagged cyno VEGFR1 [4]", "result": 100, "unit": "%"}]}, {"binder": "B3", "values": [{"measurement": "IC50", "setting": "[5]", "result": 8.92, "unit": "nM"}, {"measurement": "Max % Inh.", "setting": "[5]", "result": 98.6, "unit": "%"}, {"measurement": "IC50", "setting": "His tagged cyno VEGFR1 [6]", "result": 13.3, "unit": "nM"}, {"measurement": "Max % Inh.", "setting": "His tagged cyno VEGFR1 [6]", "result": 99.2, "unit": "%"}]}, {"binder": "B4", "values": [{"measurement": "Kd", "setting": "human VEGFA165 [7]", "result": 22, "unit": "nM"}, {"measurement": "fold reduction in affinity", "setting": "human VEGFA165 [8]", "result": "~1000", "unit": "fold"}]}, {"binder": "B5", "values": [{"measurement": "Kd", "setting": "[9]", "result": "~0.0002", "unit": "nM"}, {"measurement": "Kd", "setting": "[10]", "result": "~0.0005", "unit": "nM"}, {"measurement": "Kd", "setting": "[11]", "result": "> 2", "unit": "nM"}, {"measurement": "IC50", "setting": "[12]", "result": 0.0655, "unit": "nM"}, {"measurement": "IC50", "setting": "[13]", "result": 0.044, "unit": "nM"}]}]}
